Source: article doi:10.1101/2025.06.10.658980, “Structures reveal how the Cas1-2/3 integrase captures, delivers, and integrates foreign DNA into CRISPR loci” (bioRxiv, 2025)

B1: Cas2/3 fusion protein (type I-F, Pseudomonas aeruginosa PA14), untagged (enzyme)
chain: MNILLVSQCEKRALSETRRILDQFAERRGERTWQTPITQAGLDTLRRLLKKSARRNTAVACHWIRGRDHSELLWIVGDASRFNAQGAVPTNRTCRDILRKEDENDWHSAEDIRLLTVMAALFHDIGKASQAFQAKLRNRGKPMADAYRHEWVSLRLFEAFVGPGSSDEDWLRRLADKRETGDAWLSQLARDDRQSAPPGPFQKSRLPPLAQAVGWLIVSHHRLPNGDHRGSASLARLPAPIQSQWCGARDADAKEKAACWQFPHGLPFASAHWRARTALCAQSMLERPGLLARGPALLHDSYVMHVSRLILMLADHHYSSLPADSRLGDPNFPLHANTDRDSGKLKQRLDEHLLGVALHSRKLAGTLPRLERQLPRLARHKGFTRRVEQPRFRWQDKAYDCAMACREQAMEHGFFGLNLASTGCGKTLANGRILYALADPQRGARFSIALGLRSLTLQTGQAYRERLGLGDDDLAILVGGSAARELFEKQQERLERSGSESAQELLAENSHVHFAGTLEDGPLREWLGRNSAGNRLLQAPILACTIDHLMPASESLRGGHQIAPLLRLMTSDLVLDEVDDFDIDDLPALSRLVHWAGLFGSRVLLSSATLPPALVQGLFEAYRSGREIFQRHRGAPGRATEIRCAWFDEFSSQSSAHGAVTSFSEAHATFVAQRLAKLEQLPPRRQAQLCTVHAAGEARPALCRELAGQMNTWMADLHRCHHTEHQGRRISFGLLRLANIEPLIELAQAILAQGAPEGLHVHLCVYHSRHPLLVRSAIERQLDELLKRSDDDAAALFARPTLAKALQASTERDHLFVVLASPVAEVGRDHDYDWAIVEPSSMRSIIQLAGRIRRHRSGFSGEANLYLLSRNIRSLEGQNPAFQRPGFETPDFPLDSHDLHDLLDPALLARIDASPRIVEPFPLFPRSRLVDLEHRRLRALMLADDPPSSLLGVPLWWQTPASLSGALQTSQPFRAGAKERCYALLPDEDDEERLHFSRYEEGTWSNQDNLLRNLDLTYGPRIQTWGTVNYREELVAMAGREDLDLRQCAMRYGEVRLRENTQGWSYHPYLGFKKYN
notes: Two Cas2/3 subunits stand in the Cas1-2/3 heterohexamer, joined through the Cas2 homodimer; also called Cas3; Cas3a; source: E. coli BL21(DE3), co-expressed with StrepII-Cas1 from a single plasmid; in lysate, and purified with Cas1 (StrepTrap HP, Superdex 200)
B2: Cas1 (type I-F, Pseudomonas aeruginosa PA14), StrepII-tagged (enzyme)
chain: MDDISPSELKTILHSKRANLYYLQHCRVLVNGGRVEYVTDEGRHSHYWNIPIANTTSLLLGTGTSITQAAMRELARAGVLVGFCGGGGTPLFSANEVDVEVSWLTPQSEYRPTEYLQRWVGFWFDEEKRLVAARHFQRARLERIRHSWLEDRVLRDAGFAVDATALAVAVEDSARALEQAPNHEHLLTEEARLSKRLFKLAAQATRYGEFVRAKRGSGGDPANRFLDHGNYLAYGLAATATWVLGIPHGLAVLHGKTRRGGLVFDVADLIKDSLILPQAFLSAMRGDEEQDFRQACLDNLSRAQALDFMIDTLKDVAQRSTVSA
notes: Four Cas1 subunits (two homodimers) stand in the Cas1-2/3 heterohexamer; also called StrepII-tagged Cas1; Cas1a; source: E. coli BL21(DE3), co-expressed with Cas2/3 from a single plasmid; in lysate, and purified (StrepTrap HP, Superdex 200); not shown: StrepII, N-terminal, kept

What was measured:
[1] = target: B2; assay: SEC; affinity-purified Cas1-2/3 on Superdex 200 in 10 mM HEPES pH 7.5, 500 mM potassium glutamate, 10% glycerol; single peak, estimated ~380 kDa; conditions: both partners purified
[2] = target: the molecule itself; assay: cryo-EM structure; Cas1-2/3 capture complex without nucleic acid, 12.8 uM, 3.3 Å

| Binder | stoichiometry N [1] | stoichiometry N [2] |
| --- | --- | --- |
| B1 | 2 Cas1 per Cas2/3 (4:2) | 2 |
| B2 | – | 2 |
